Target: transferrin receptor on HeLa S3 cells (human) (UniProt P02786)
Experiment: radioiodinated transferrin on HeLa S3 cells, no competitor

Chain of transferrin receptor on HeLa S3 cells (human) (P02786 whole entry): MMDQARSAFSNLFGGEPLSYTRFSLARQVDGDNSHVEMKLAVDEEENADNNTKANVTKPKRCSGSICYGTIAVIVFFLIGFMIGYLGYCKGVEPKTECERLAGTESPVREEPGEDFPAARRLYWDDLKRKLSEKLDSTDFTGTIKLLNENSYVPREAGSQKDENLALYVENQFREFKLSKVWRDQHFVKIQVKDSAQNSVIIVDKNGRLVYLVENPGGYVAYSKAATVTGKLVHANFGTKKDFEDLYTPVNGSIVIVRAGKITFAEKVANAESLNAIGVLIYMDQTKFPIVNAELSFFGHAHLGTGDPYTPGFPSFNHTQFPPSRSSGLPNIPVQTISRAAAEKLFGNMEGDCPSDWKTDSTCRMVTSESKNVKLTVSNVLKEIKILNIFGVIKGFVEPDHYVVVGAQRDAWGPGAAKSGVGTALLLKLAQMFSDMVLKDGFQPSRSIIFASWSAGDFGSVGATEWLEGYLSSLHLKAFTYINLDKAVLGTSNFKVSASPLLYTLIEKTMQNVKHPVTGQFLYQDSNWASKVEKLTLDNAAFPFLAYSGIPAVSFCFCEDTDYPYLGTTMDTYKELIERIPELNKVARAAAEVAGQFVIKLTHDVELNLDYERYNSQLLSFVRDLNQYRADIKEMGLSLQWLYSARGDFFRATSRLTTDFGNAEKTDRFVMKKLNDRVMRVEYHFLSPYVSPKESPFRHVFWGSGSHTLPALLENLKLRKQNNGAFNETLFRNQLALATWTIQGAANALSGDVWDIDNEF

## radiolabeled diferric transferrin
  TF/cell in the absence of competitor: 328000 TF/cell
  cpm bound in the absence of competitor: 7480 cpm
